Measurements taken from the DeepSol protein solubility set.

Test: soluble on expression in E. coli; label from the status in PepcDB or PDB records

Row | Sequence | soluble on expression in E. coli
1 | MSLDKPVIQIHTDNSSLIFRVADNGRLYQSYLGKKLNHEADISHLPQGTEAYITHGMEDYFEPAIHILHNDGNPSLLLKYVSHETKAVSQGVNETIITLGDDKYPVTVKLHYVTYPAEDIIKTYTEISHKEKKPVVLHQYASSMLHLNRAKYYLTEFSGDWAHEANISDQPLEFGKKVLDTKLGARANMFTPPFFQLSLDQLATENCGEVLVGTLGWTGNFRFTFEVDNKNELRIISGINPYASEYYLPAGVVFRTPDFYFTYSANGKGKASRNFHDWARRYQLKDGDETRMTLLNNWEATYFDFNEEKLIGLIGDAAGLGVDMFLLDDGWFANKYPRSSDHQGLGDWDETADKLPNGIGRLVEEATKKGIKFGLWIEPEMVNPKSELYEKHKDWVIHLPNRDEYYFRNQLVLDLSNPKVQDFVFGVVDDLMTKYPGIAFFKWDCNSPITNIYSSYLKEKQSHLYIDYVRGLYNVLERIKTKYPDLPMMLCSGGSGRIDYETLRYFTEFWPSDNTDPIERLFIQWGYSQLFPAKTLCAHVTTWNHDASIKFRTDVAMMGKLGFDIKLSDLNDNEKKFCRDAVTNYNHLKPVVLEGDMYRLVSPYSGNHTSTQYVGKDKKGAVVFAFDIYSRYGEKLLPVRLQGLDAGRQYRVKEINLMPGTNSSLQGNGELFSGEYLMTVGLNIFTGQRLNSRVIEVVAEEGHHPITTDPNSSSVDKLAAALEHHHHHH | soluble
2 | MSLDKPVLLLGEICVDFTLSTPMSSAKMRLGGVVHAARGLWALNVPYSVAAICPDYLVSEAEAYLYAHGCTNFIQVGTVLGAPNVFLIGDAREVGHQGYENILREAKKVLTFDLDEKLRGFKNIVVYPGTFDFEGIVKNLDSDAKITVDIAYDVNDADELSRVYGASHALAISTSSELFSSLALENLGPLLKACKTRSAKHLLLKENRGGSRLFDLESGESWEIPATLARTVNSVGVGDVYTAVFAALIDHGALTAALRGMQAATRYAQTTFPDDFKRDVQRDEGHHHHHH | not soluble
3 | MSLDLHNDLKSYLSELNTYSHVDKNEIYHSQRAGYMTGGGISIRNGASHTALAQVSLPKFDAGCGGIDIFTGGISFISHDQLIAALKNIASSAQGYAFMLGIETVSPLIASTMKQMETWANAINSLGINSCEVATGLVGSVWPARTAAKQQICRSAKNGGFASSFINARHQCADEGDYAKTMQSMAKDPLYDGMLLEEYNLTWKAVQKHPFLAKKENRKMAEEIMSLTGTLIIRRDKSLVVEPWPSRIYDDSFLPILLEGGTTRVYQCTGGNAKQNCLALEMKELTIPAEQAWKGRIKQALATIQQKILADTPLASEEIDLLSKSRLPLFKIVNVLTAYKREVSPISLYEVAEIVGNEMLIQYLREIIGTVRLAAIQLERGQMYDFDSQKFIEELERVEKVVSRYEERHYQRLEAENQLMLKIETLEQKIASQIILFEGHHHHHH | not soluble
4 | MSLDLNDTYSGKREPFSGDHSADGFEVTSRSEMSSGSEISPVSEMPSSSEPSSGADYDYSEEYDNEPQIPGYIVDDSVRVEQVVKPPQNKTESENTSDKPKRKKKGGKNGKNRRNRKKKNPCNAEFQNFCIHGECKYIEHLEAVTCKCQQEYFGERCGEKSMKTHSMIDSSEGHHHHHH | soluble
5 | MSLDNIIIIQTKNPNYYAIKYAYKNQYEQFYEEELNIRKKLNYPPFNKIIRIIFRSKNEESAKQKCWEFFEKSKEFLQEEIEHLGPSEAIMKKISKNYRYNIIYLSKSYSLLEKLVNKTKEKVKMTSTVYIEIDYYPISEGHHHHHH | not soluble
6 | MSLDRKLKGSVEEKTLEYLRKRPEIYMALSTGIVNLNGLAALISKENDGMNQLSIRSVLQKMIRDGLVSDYRKSTDDLLKRSKVTLQDKVSVITSRRKIDIDFLSVTFLTDSVVYIVDETRAKNIPKDALIERNVSLIHIFSPPEIVTTPGFAMNVVQRIYAANVNILQLISCSNETMIVVNRDDAISAYSALTSYEGHHHHHH | soluble
7 | MSLDSLYVNDFYKGDRNITKFLKLELEMYDWKLMILHYLGLDHIGHVEGPFSDKVPGKLKEMDKVIKTIYHTMDKWKYYTKPLLVITGDHGMRDSGGHGGSSHAETIVPVVIVSDQCAKSEETFLQIDEGHHHHHH | not soluble
8 | MSLDTFGLIQLAELIYEYCGIDFFKNLSSLESKISERLKELGLSCWEYGGYLRVEPKEWDTLIDLITVNETYFFREENLLEEFQKVILPKYKDRTPNNPLRIWSSACSSGEEPYTLAILSEETGLFETGAVEIIASDIDKKVLEKARRGLYNKKSFSFRTMPKEILDKYFISFGDDYKVKDSIRAMVDFRRVNLLDENKLEKVGEVDIVFCRNVLIYFDTKAINKVINSLYKVLRAGGYLFLGHAETITGMNTGFETIYTPSAFYYRKGERHEGHHHHHH | soluble
9 | MSLDTQSDYVVVGTGSAGAVVASRLSTDPATTVVALEAGPRDKNRFIGVPAAFSKLFRSEIDWDYLTEPQPELDGREIYWPRGKVLGGSSSMNAMMWVRGFASDYDEWAARAGPRWSYADVLGYFRRIENVTAAWHFVSGDDSGVTGPLHISRQRSPRSVTAAWLAAARECGFAAARPNSPRPEGFCETVVTQRRGARFSTADAYLKPAMRRKNLRVLTGATATRVVIDGDRAVGVEYQSDGQTRIVYARREVVLCAGAVNSPQLLMLSGIGDRDHLAEHDIDTVYHAPEVGCNLLDHLVTVLGFDVEKDSLFAAEKPGQLISYLLRRRGMLTSNVGEAYGFVRSRPELKLPDLELIFAPAPFYDEALVPPAGHGVVFGPILVAPQSRGQITLRSADPHAKPVIEPRYLSDLGGVDRAAMMAGLRICARIAQARPLRDLLGSIARPRNSTELDEATLELALATCSHTLYHPMGTCRMGSDEASVVDPQLRVRGVDGLRVADASVMPSTVRGHTHAPSVLIGEKAADLIRSEGHHHHHH | soluble
10 | MSLDYAQRAVQVDPPRRLTHEMDSWARNFVMLRTDVQGRPINRLEGVYVEHFPDDDSYHVTTPRAIGQQAGNPITIGVSKTAIMEQGGQRIVMNGDAHVHRQPDARNETLDVRSQQLILLPDDDVVFTDLPAQVNKGNSRMNGTGMHYNNKTRQLRVSAAADVEIAGTEGRKRQSTETPANSNQNKPEGHHHHHH | soluble
11 | MSLEAAPAGSGPLRRTFLVPEIKSLDQYDFSRAKAAASLAWVLRAAFGGAEHVPPELWEPFYTDQYAQEHVKPPVTRLLLSAELYCRAWRQALPQLEPSPSPSALLALLARRGTVPSLPEHPVREADLKHQPILMGAHLAVIDALMVAFSFEWTKTLPGPLALSSLEHKLLFWVDTTVRRLQEKTEQEAAQRASPAAPLDGASEGHHHHHH | not soluble
12 | MSLEENMEGALFLENESFCEEIPDNPNIEKEKPLEFISSGNLEIDRKLEGGIPVGSLCLLEGAKDSGKSIFMQQIMWGALNQDKKVLALTTEKTSRNLLNNMESLKQDISDYFIIGRSKIFEINASDVEENPEISENLLEIMLECIKECEEELILIDSLTILAVNASENTLLNFFRECIKLCDKKKTILISVHGYAFSQEVLYRLRSVCNSCLELRIEQVGDKLIKTMEIQKLRGAKKTTGNMLSFDVNSECGLKIIPVSKVKAEGHHHHHH | soluble
13 | MSLEFLEQEGQEVLTKEIKAGFCEITPSSITEQTTKPQLDETQLVDEYVHTKELETTPIPISFATKEVLFEEVFNTPSTQQVDESVLVNEYIELTQQIKNASEQVSSNHTHKFSVATEPAATKAVSETMLLDDYVEMVEQDVQAQTALPQAALDPTVSLTFSSPIDSNAILVYPEMKVPHVFDTVAPTTTTVPLDQTQLLDELVEVPVLTHTVTPAPLQPKAAPTNFALDQTQLVDELVTVPLTHTLVNESAPVTPVVVTSPAAEHSFSITTVDKANLTNALSQTVVIKPAEDSAHQSAVLDKEIATKQAQLQQLQAQIELRQAQLETPPVTYMGVEEYKLLPVQDVVPVQPTVSFEMTLLQEQLDKALKHNAALQIQLEEQLAKPLQYDQSPVLQERIELLQNQNTNLTQELNELQQKLFKSQNNSLLLARLEEENRTLKQHLQNNLPEANQLNFVLEKQLEQLQQDKHSLTLQIEQYKFDSKKHQEQLALIPSLRSEINSLETEVISLKQTNQRLSLIERENNFLKTEIKQLRETKLNDENTKYRNLLKQYELMRADSDAKLKELEHEQHLAHQHHQEQLAQLQRHNEALVKELDQVKATNFELGLAAQGFEQQKVVLEQKNSSLLASLQAAEENVQALGITNSELQNQLNVLEFTHKEKTAFDSKTLTLTKQQLEQTQFDLSLTQEQLATFKQQNQSLTDKLMASETQLNHLQQSDENLTQLQTQHELLQESYNKLQDEANHTQQQFHQAQNELDAAHQQLALFKQNNEELTDKCSNIQNELHDLNRVKTNWENLNTEHNLLQDKYAQQKEQMQHEHSNLAQIQAEHELLQESYNKVKAELNEIQITNLNEANAQYQDLLSAYELLQSNHNKLKQELQVLNQVNLEKQQLAQKLHNTHQSLSQTHAELTQLQAAYNNLQATPPVSDELLEQFNQVQLEKQRLLQQNLALVHELQYFNELNSSQTHEIKTKQDETVKEVIIVEKEIPVPPEKKPRLKKRDIVIENKEDALGKLSKKERIQAYAERLAKINGKQEGHHHHHH | not soluble
14 | MSLEFQNLANRILDEKSRSFSQSNQTALETLLKPFREQIEGFQKRVNEIHSESVKGNAGLEAEIKKVLEIGLNMSQEASNLTSALKGEKKTLGNWGEVQLERALQLAGLEENVHYRAQAHFKDEQGGRNYPDFVLNLPDEKHLIIDSKMSLVAYESAVNSEDDFERERLLKEHISALKTHINDLHKKDYSNLIGMCSPNFVLMFIAVEPAYIEALKADPALFNYGYERNVIMVSHTTLMPILRTVANLWRIERGNAEAKEIAEKAGEIYNQICLVAERLNKLGNTLSTVSNQYNSTVTALVGQQGLVGKVERFKTLSAKANKTMPDVDLLNNQLDLARLNVLNQENLQEGHHHHHH | soluble
15 | MSLEGRRICVDSCPITCITFCAAHTALGPHHGRSGCAVVIRSMDEKLKRVAHAVSDMGLMSKILGESGSSRNTEDYVELNANEFEMTGTELERQVRIARISDKQDVIDIKDAVYDGDVVVADITRHSTQDRTMEHISDELKQVANEVGGDIVQKDDDQLIITPAGVGIARERLGREGHHHHHH | soluble
16 | MSLEGVENKVIVLAGMIGAGKSSYTELIANELGTKAFYESIKDNRILEMFYDDPKRWAFALQIYFLNTRFRSIKAALTDQNNVLDRSIYEDALFTQINFEEGNISEPEMDTYLDLLDNMMEELAYMPKKAPDLLIYLRGSLDTVLSRIALRGRPYEQIDDNPGLLEYYKHLHSRYDSWFASYDKSETLVINIDEIDINKPNDADYVMQLIHEKLKREGHHHHHH | soluble
17 | MSLEKMEDHFILCGYGLMGREIIKELPKDKVVVIDSDIGKVSAAREDGYVAVHGDATDDFTLEKAGIGKAKALICCMSDASNAFAILTAKELNPRIKTVAILRSPDAEKKMRRVGVDILLSPYRDAAKKIISLLSEKAVAEFVETVISGAKSLNLEKVVADEYMDGKTLRELDLRRRTGCIVVAVVRRGDVILPEADTRLEKGDILYILCSGEAPLELEGHHHHHH | soluble
18 | MSLEKYGNVNDFLDDDLVKNGNPDVYIVVGENSATPDVTSANKISAKIGTMTYTEKVVEDTSTTGYQIIGESESINLLDGTDKLDSAGTKKSWILVIGADDSYSDYFDDDEGNSFSYSEFSEADKTRSLGELGYLLKLYDIDPKNHFESDDDASELVFVRITDSDKNANSQTYNIEKDMVYVSIVYPNQISAFKLAKELEEGYEIPFLGDKYRIVKIDEDDDIIYLGTASYEGTIAHNEYISSGEYQVVLGEILENEDEYRVEISVLRNGNMIEEHTETEGHHHHHH | soluble
